Reference: patent US20260167724A1
Where “and” joins values, the source holds several entries; their conditions need not be identical. Identical values can stand only once.

Biological target: CD3 on the Jurkat cell
Assay: cell-based or functional assay

B1: Axl-WT×CD3-WT (bispecific antibody, part only; not given: constant regions and linkers, not shown: a dimerising Fc or GST)
heavy: EVQLVQSGAEVKKPGATVKISCKVSGYSFTGHTMNWIRQPPGKGLEWIGLIKPSNGGTSYNQKFKGRVTISADKSISTAYLQWSSLKASDTAMYYCAHGHYESYFAMDYWGQGTSVTVSS
light (part 1 of 2), part: DIQMTQSPSSLSASVGDRVTITCKASQDVSSAVAWYQQKPGQAPRLLIYWASTRHTGVPSRFSGSGSGTEFTLTISSLQPDDFATYYCQEHFSTPLTFGQGTKVEIK
light (part 2 of 2), part: QAVVTQEPSLTVSPGGTVTLTCRSSTGAVTTSNYANWVQQKPGQAPRGLIGGTNKRAPWTPARFSGSLLGGKAALTITGAQAEDEADYYCALWYSNLWVFGGGTKLTVLGEVQLVESGGGLVQPGGSLRLSCAASGFTFNTYAMNWVRQAPGKGLEWVARIRSKYNNYATYYADSVKDRFTISRDDSKNSLYLQMNSLKTEDTAVYYCVRHGNFGNSYVSWFAYWGQGTLVTVSS
Luciferase Amount, pH 6.0, at CHO-Axl concentration (ng/mL) 0.00000: 893 RLU and 937 RLU | Luciferase Amount, pH 6.0, at CHO-Axl concentration (ng/mL) 0.01000: 1230 RLU and 1330 RLU | Luciferase Amount, pH 6.0, at CHO-Axl concentration (ng/mL) 0.1000: 2310 RLU and 2000 RLU | Luciferase Amount, pH 6.0, at CHO-Axl concentration (ng/mL) 1.000: 10700 RLU and 10000 RLU | Luciferase Amount, pH 6.0, at CHO-Axl concentration (ng/mL) 10.00: 44900 RLU and 46700 RLU | Luciferase Amount, pH 6.0, at CHO-Axl concentration (ng/mL) 100.0: 77200 RLU and 83200 RLU | Luciferase Amount, pH 6.0, at CHO-Axl concentration (ng/mL) 1000.0: 96200 RLU and 90400 RLU | Luciferase Amount, pH 6.0, at CHO-Axl concentration (ng/mL) 10000.0: 100000 RLU and 102000 RLU | Luciferase Amount, pH 7.4, at CHO-Axl concentration (ng/mL) 0.00000: 2280 RLU and 2160 RLU | Luciferase Amount, pH 7.4, at CHO-Axl concentration (ng/mL) 0.01000: 2270 RLU and 2350 RLU | Luciferase Amount, pH 7.4, at CHO-Axl concentration (ng/mL) 0.1000: 3930 RLU and 3970 RLU | Luciferase Amount, pH 7.4, at CHO-Axl concentration (ng/mL) 1.000: 17700 RLU and 18400 RLU | Luciferase Amount, pH 7.4, at CHO-Axl concentration (ng/mL) 10.00: 51800 RLU and 57100 RLU | Luciferase Amount, pH 7.4, at CHO-Axl concentration (ng/mL) 100.0: 94100 RLU and 99200 RLU | Luciferase Amount, pH 7.4, at CHO-Axl concentration (ng/mL) 1000.0: 113000 RLU and 112000 RLU | Luciferase Amount, pH 7.4, at CHO-Axl concentration (ng/mL) 10000.0: 135000 RLU and 139000 RLU
